The text below walks through data of PMC3021135.

What is called Kd is the constant that tells how readily two partners part at equilibrium.

For the series, the target named is hAGT C145S (O6-alkylguanine-DNA alkyltransferase, inactive mutant) (human, UniProt P16455 1-207, C145S). Put plainly: EMSA. A general note: Mobility shift assays separate free from complexed probe on a gel.
hAGT C145S (O6-alkylguanine-DNA alkyltransferase, inactive mutant), sequence (P16455 whole entry C145S): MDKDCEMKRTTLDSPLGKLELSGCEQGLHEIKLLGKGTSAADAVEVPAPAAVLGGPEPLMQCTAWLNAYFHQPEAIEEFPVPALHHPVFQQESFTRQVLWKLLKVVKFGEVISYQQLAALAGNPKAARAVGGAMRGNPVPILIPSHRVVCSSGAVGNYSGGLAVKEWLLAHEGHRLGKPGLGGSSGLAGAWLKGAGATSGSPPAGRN

B1: Control (non-cross-linked duplex) (dsDNA)
DNA 1: CGATGTCATCG
DNA 2: CGATGACATCG
In turn, B1 displayed a Kd of 8.36 ± 1.11 µM.
